According to publication PMC9340783, “Development of a fully human anti‐GITR antibody with potent antitumor activity using H2L2 mice” (FEBS Open Bio, 2022):
Numbering of substitutions follows the chain as printed. Names and notes keep the numbering of the source.

T1: cynoGITR on 293F‐cynoGITR cells (Macaca fascicularis)
T1 construct: also called 293F‐cGITR
T1 chain: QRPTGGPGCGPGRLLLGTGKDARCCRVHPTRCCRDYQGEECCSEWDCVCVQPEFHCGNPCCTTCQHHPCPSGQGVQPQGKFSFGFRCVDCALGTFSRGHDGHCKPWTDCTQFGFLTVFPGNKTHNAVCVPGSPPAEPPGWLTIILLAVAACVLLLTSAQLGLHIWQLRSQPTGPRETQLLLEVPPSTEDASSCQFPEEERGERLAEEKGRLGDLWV

T2: cynoGITR ECD hFc (Macaca fascicularis)
T2 construct: cynomolgus GITR, extracellular domain, Gln20-Glu155, NCBI XP_005545180.1; also called cynoGITR protein; cGITR; source: FreeStyle 293F, transiently transfected, purified by protein A
T2 chain: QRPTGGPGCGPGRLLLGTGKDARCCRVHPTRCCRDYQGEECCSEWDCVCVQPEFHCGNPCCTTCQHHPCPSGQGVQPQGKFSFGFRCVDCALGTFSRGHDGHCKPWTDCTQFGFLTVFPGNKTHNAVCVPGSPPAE

B1: mAb019 (antibody, V domains shown)
VH: QVQLVESGGGVVQPGRSLRLSCAASGFTFSSYGMHWVRQAPGKGLEWVAVIWYAGSRKFYADSVEGRFTISRDNSKNTLYLQMSSVRPEDTAVYYCARGGSLDGGFFYYGMDVWGQGTTVTVSS
VL: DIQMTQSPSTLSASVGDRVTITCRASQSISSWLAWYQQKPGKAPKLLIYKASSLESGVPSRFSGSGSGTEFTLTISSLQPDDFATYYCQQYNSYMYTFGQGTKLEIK
notes: as the VH of m12 (hab019 was made from the variable regions of mAb019); as the VL of m12; Human-murine chimeric antibody from H2L2 mice: human variable regions, rat constant regions; source: hybridoma cell culture supernatant, purified (Protein A)
B2: mAb070 (antibody, V domains shown)
VH: QVQLVESGGGVVQPGRSLRLSCAASGFTFSSYGMHWVRQAPGKGLEWVAVIWYETSNKFYVDSVKGRFTISRDNSKNTLYLQMNSLRAEDTAVYYCARYGASSGWYWYFDLWGRGTLVTVSS
VL: DIQLTQSPSFLSASVGDRVTITCRASQGISSFLAWYQQKPGKAPKLLIYAASTLQSGVPSRFSGSGSGTEFTLTISSLQPEDFATYCCQQLNSYPFTFGQGTKLEIK
notes: as the VH of m14; as the VL of m14; Human-murine chimeric antibody from H2L2 mice: human variable regions, rat constant regions; source: hybridoma cell culture supernatant, purified (Protein A)
B3: mAb076 (antibody, V domains shown)
VH: B2 VH with F59Y, V61A
VL: B2 VL with F32Y
notes: as the VH of m15; as the VL of m15; Human-murine chimeric antibody from H2L2 mice: human variable regions, rat constant regions; source: hybridoma cell culture supernatant, purified (Protein A)
B4: hab019 (antibody, V domains shown)
VH: B1 VH
VL: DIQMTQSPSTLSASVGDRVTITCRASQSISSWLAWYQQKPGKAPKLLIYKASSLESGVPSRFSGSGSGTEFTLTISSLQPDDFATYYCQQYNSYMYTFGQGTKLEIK
notes: 3503‐hab019‐VH; 3503‐hab019‐Vk; Whole antibody, human IgG1 heavy chain constant region, human kappa light chain constant region; source: FreeStyle 293F, transiently co-transfected, purified from culture supernatant
B5: hab064 (antibody, V domains shown)
VH: B2 VH with F59Y, V61A, S85N, A101G, S102N
VL: B2 VL with K42T
notes: 3503‐hab064‐VH; 3503‐hab064‐Vk; Whole antibody, human IgG1 heavy chain constant region, human kappa light chain constant region; source: FreeStyle 293F, transiently co-transfected, purified from culture supernatant
B6: hab070 (antibody, V domains shown)
VH: B2 VH
VL: B2 VL
notes: 3503‐hab070‐VH; 3503‐hab070‐Vk; Whole antibody, human IgG1 heavy chain constant region, human kappa light chain constant region; source: FreeStyle 293F, transiently co-transfected, purified from culture supernatant
B7: hab076 (antibody, V domains shown)
VH: B2 VH with F59Y, V61A
VL: B2 VL with F32Y
notes: 3503‐hab076‐VH; 3503‐hab076‐Vk; Whole antibody, human IgG1 heavy chain constant region, human kappa light chain constant region; source: FreeStyle 293F, transiently co-transfected, purified from culture supernatant
B8: hab019e1 (antibody, V domains shown)
VH: B1 VH with S84N, V86L, P88A
VL: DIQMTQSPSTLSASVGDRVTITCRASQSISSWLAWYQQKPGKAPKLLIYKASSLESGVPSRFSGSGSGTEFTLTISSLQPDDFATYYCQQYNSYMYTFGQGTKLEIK
notes: 3503‐hab019‐VH(DG + NLA); positions not given; as the VL of m12 (3503‐hab019‐Vk); Whole antibody, human IgG1 heavy chain constant region, human kappa light chain constant region; source: FreeStyle 293F, transiently co-transfected, purified from culture supernatant
B9: mAb064 (antibody, V domains shown)
VH: B2 VH with F59Y, V61A, S85N, A101G, S102N
VL: B2 VL with K42T
notes: as the VH of m13; as the VL of m13; Human-murine chimeric antibody from H2L2 mice: human variable regions, rat constant regions; source: hybridoma cell culture supernatant, purified (Protein A)
B10: hab019e3 (antibody, V domains shown)
VH: B1 VH with S84N, V86L, P88A, G104A
VL: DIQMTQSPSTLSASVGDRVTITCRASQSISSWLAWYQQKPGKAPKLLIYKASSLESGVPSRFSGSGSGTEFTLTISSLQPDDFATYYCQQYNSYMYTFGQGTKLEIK
notes: 3503‐hab019‐VH(DA + NLA); positions not given; as the VL of m12 (3503‐hab019‐Vk); Whole antibody, human IgG1 heavy chain constant region, human kappa light chain constant region; source: FreeStyle 293F, transiently co-transfected, purified from culture supernatant
B11: hab064e1 (antibody, V domains shown)
VH: B2 VH with F59Y, V61A, A101G, S102N
VL: B2 VL with C87Y
notes: 3503‐hab064‐VH(N2S); the substitution is against the VH of m13; position not given; 3503‐hab064‐Vk(T2K/C2Y); the substitutions are against the VL of m13; positions not given; Whole antibody, human IgG1 heavy chain constant region, human kappa light chain constant region; source: FreeStyle 293F, transiently co-transfected, purified from culture supernatant
B12: hab076e1 (antibody, V domains shown)
VH: B2 VH with F59Y, V61A
VL: B2 VL with F32Y, C87Y
notes: as the VH of m15 (3503‐hab076‐VH); 3503‐hab076‐Vk(C2Y); the substitution is against the VL of m15 (Cys in FR3 of VL); position not given; Whole antibody, human IgG1 heavy chain constant region, human kappa light chain constant region; source: FreeStyle 293F, transiently co-transfected, purified from culture supernatant

target: T3, human GITR on 293F‐hGITR cells (Homo sapiens (Human)., UniProt Q9Y5U5-1); experiment: cell-based or functional assay; settings: not given
T3 sequence (Q9Y5U5 26-241): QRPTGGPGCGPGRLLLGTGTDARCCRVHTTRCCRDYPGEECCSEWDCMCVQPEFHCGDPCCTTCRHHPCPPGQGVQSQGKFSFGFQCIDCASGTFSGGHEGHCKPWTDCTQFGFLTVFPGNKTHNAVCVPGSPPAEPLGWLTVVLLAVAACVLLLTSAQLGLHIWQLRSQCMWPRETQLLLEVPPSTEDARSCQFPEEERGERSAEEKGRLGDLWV

| Binder | NF‐ĸB luciferase reporter assay, Crosslinking, EC50 [nM] | NF‐ĸB luciferase reporter assay, Crosslinking, Top ratio [fold] | NF‐ĸB luciferase reporter assay, No crosslinking, Top ratio [fold] | NF‐ĸB luciferase reporter assay, No crosslinking, EC50 [nM] |
| --- | --- | --- | --- | --- |
| B1 | 12.5 | 11 | 20 |  |
| B2 | > 0.09 | 7 | 10 | 0.062 |
| B3 | > 0.27 | 8 | 14 | > 0.09 |
| B4 | 8.66 | 13 | 10 | 0.265 |
| B5 | 7.13 | 12 | 10 | 0.177 |
| B6 | 7.32 | 16 | 9 | 0.111 |
| B7 | 6.07 | 20 | 9 | 0.157 |
| B8 | 9.46 | 12 | 8 | 0.26 |
| B9 | 0.101 | 7 | 10 | > 0.2 |
| B10 | 8.75 | 14 | 9 | 0.269 |
| B11 | 9.26 | 12 | 11 | 0.264 |
| B12 | 5.16 | 13 | 8 | 0.264 |

target: T4, hGITR ECD hFc (Homo sapiens (Human)., UniProt Q9Y5U5, Thr45Ala); experiment: SPR; Biacore T200; hGITR ECD hFc immobilised on a Series S CM5 chip; antibody 0, 3.125, 6.25, 12.5, 25 and 50 nM; association 180 s, dissociation 600 s; settings: both partners purified
T4 construct: human GITR (glucocorticoid-induced TNF receptor-related), extracellular domain, Gln26-Glu161 with Thr45Ala, UniProt Q9Y5U5.1; also called human GITR protein; source: FreeStyle 293F, transiently transfected, purified by protein A

| Binder | Kd [nM] |
| --- | --- |
| B4 | 0.401 |
| B5 | 0.592 |
| B6 | 0.251 |
| B7 | 1.03 |

target: T3, human GITR on 293F‐hGITR cells; experiment: flow cytometry on cells; 293F‐hGITR or 293F‐cynoGITR cells incubated with antibodies at 4 °C for 1 h, fluorescent anti-rat/human secondary antibody; EC50 of MFI curve; settings: one partner purified

| Binder | EC50 [nM] |
| --- | --- |
| B1 | 0.163 |
| B2 | 0.358 |
| B3 | 0.152 |
| B4 | 0.244 |
| B5 | 0.165 |
| B6 | 0.19 |
| B7 | 0.179 |
| B8 | 0.181 |
| B9 | 0.385 |
| B10 | 0.215 |
| B11 | 0.235 |
| B12 | 0.195 |

Target: T1, cynoGITR on 293F‐cynoGITR cells
Experiment: as above
Settings: one partner purified

| Binder | EC50 [nM] |
| --- | --- |
| B1 | 0.011 |
| B2 | 0.198 |
| B3 | 0.226 |
| B4 | 0.304 |
| B5 | 0.22 |
| B6 | 0.19 |
| B7 | 0.418 |
| B8 | 0.287 |
| B9 | 0.404 |
| B10 | 0.277 |
| B11 | 0.313 |
| B12 | 0.26 |

target: T4, hGITR ECD hFc; experiment: ELISA; indirect ELISA; antigen hFc fusion protein coated on 96-well plates (1 μg·mL^−1 overnight at 4 °C in Fig. 3B), antibody added, detected with anti-rat IgG/hIgG-peroxidase antibody; settings: both partners purified

| Binder | EC50 [nM] |
| --- | --- |
| B1 | 0.008 |
| B2 | 0.022 |
| B3 | 0.01 |
| B4 | 0.103 |
| B5 | 0.106 |
| B6 | 0.099 |
| B7 | 0.091 |
| B8 | 0.082 |
| B9 | 0.038 |
| B10 | 0.098 |
| B11 | 0.093 |
| B12 | 0.087 |

Target: T2, cynoGITR ECD hFc
Experiment: as above
Settings: both partners purified

| Binder | EC50 [nM] |
| --- | --- |
| B1 | 0.007 |
| B2 | 0.025 |
| B3 | 0.012 |
| B4 | 0.092 |
| B5 | 0.108 |
| B6 | 0.106 |
| B7 | 0.101 |
| B8 | 0.079 |
| B9 | 0.035 |
| B10 | 0.089 |
| B11 | 0.096 |
| B12 | 0.094 |
